Measurements taken from patent publication US20100260668A1 (published 2010).

B1: DVD500 (bispecific antibody, human IgG1, kappa)
heavy: not shown
light: DIQMTQSPSSLSASVGDRVTITCSASQDISNYLNWYQQKPGKAPKVLIYFTSSLHSGVPSRFSGSGSGTDFTLTISSLQPEDFATYYCQQYSTVPWTFGQGTKVEIKRTVAAPDIQMTQSSSYLSVSLGGRVTITCKASDHINNWLAWYQQKPGNAPRLLISGATSLETGVPSRFSGSGSGKDYTLSITSLQTEDVATYYCQQYWSIPLTFGAGTKLELKRTVAAPSVFIFPPSDEQLKSGTASVVCLLNNFYPREAKVQWKVDNALQSGNSQESVTEQDSKDSTYSLSSTLTLSKADYEKHKVYACEVTHQGLSSPVTKSFNRGEC
notes: DVD-Ig; HC long, LC short linker; also called DVD500H; DVD500L
B2: DVD458 (bispecific antibody, human IgG1, kappa, L234A L235A)
heavy: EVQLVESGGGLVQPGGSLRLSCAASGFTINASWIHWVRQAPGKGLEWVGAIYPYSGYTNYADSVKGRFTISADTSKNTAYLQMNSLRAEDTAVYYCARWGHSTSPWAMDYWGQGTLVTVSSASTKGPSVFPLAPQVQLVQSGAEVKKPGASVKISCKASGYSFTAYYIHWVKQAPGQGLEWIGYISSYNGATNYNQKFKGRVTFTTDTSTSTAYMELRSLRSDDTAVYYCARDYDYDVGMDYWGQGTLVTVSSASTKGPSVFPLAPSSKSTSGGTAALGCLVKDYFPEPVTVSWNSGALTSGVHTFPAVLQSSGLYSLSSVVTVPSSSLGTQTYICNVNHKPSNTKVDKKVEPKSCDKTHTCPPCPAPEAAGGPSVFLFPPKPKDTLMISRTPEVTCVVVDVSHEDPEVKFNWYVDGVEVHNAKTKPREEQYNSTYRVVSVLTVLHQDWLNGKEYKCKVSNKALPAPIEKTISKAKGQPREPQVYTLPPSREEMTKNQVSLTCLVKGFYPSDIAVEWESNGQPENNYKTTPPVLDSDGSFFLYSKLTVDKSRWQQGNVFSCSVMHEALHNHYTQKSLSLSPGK
light: DIQMTQSPSSLSASVGDRVTITCRASQVIRRSLAWYQQKPGKAPKLLIYAASNLASGVPSRFSGSGSGTDFTLTISSLQPEDFATYYCQQSNTSPLTFGQGTKVEIKRTVAAPDIVMTQSPDSLAVSLGERATISCRASESVDNYGISFMKWFQQKPGQPPKLLIYAASNQGSGVPDRFSGSGSGTDFTLTISSLQAEDVAVYYCQQSKEVPWTFGGGTKVEIKRTVAAPSVFIFPPSDEQLKSGTASVVCLLNNFYPREAKVQWKVDNALQSGNSQESVTEQDSKDSTYSLSSTLTLSKADYEKHKVYACEVTHQGLSSPVTKSFNRGEC
notes: DVD-Ig; outer AB071 (VEGF), inner AB069 (DLL4); HC long, LC short linker; also called DVD458H; DVD458L
B3: DVD528 (bispecific antibody, human IgG1, lambda)
heavy: not shown
light: DIQMTQSPSSLSASVGDRVTITCRASQVIRRSLAWYQQKPGKAPKLLIYAASNLASGVPSRFSGSGSGTDFTLTISSLQPEDFATYYCQQSNTSPLTFGQGTKVEIKRTVAAPQAVVTQESALTTSPGETVTLTCRSSTGAVTTSNYANWVQEKPDHLFTGLIGGTNNRAPGVPARFSGSLIGDKAALTITGAQTEDEAIYFCALWYSNHWVFGGGTKLTVLGQPKAAPSVTLFPPSSEELQANKATLVCLISDFYPGAVTVAWKADSSPVKAGVETTTPSKQSNNKYAASSYLSLTPEQWKSHRSYSCQVTHEGSTVEKTVAPTECS
notes: DVD-Ig; outer AB071 (VEGF), inner AB073 (DLL4); HC long, LC short linker; also called DVD528H; DVD528L
B4: DVD504 (bispecific antibody, human IgG1, kappa)
heavy: not shown
light: DIQMTQSPSSLSASVGDRVTITCRASQVIRRSLAWYQQKPGKAPKLLIYAASNLASGVPSRFSGSGSGTDFTLTISSLQPEDFATYYCQQSNTSPLTFGQGTKVEIKRTVAAPDIQMTQSSSYLSVSLGGRVTITCKASDHINNWLAWYQQKPGNAPRLLISGATSLETGVPSRFSGSGSGKDYTLSITSLQTEDVATYYCQQYWSIPLTFGAGTKLELKRTVAAPSVFIFPPSDEQLKSGTASVVCLLNNFYPREAKVQWKVDNALQSGNSQESVTEQDSKDSTYSLSSTLTLSKADYEKHKVYACEVTHQGLSSPVTKSFNRGEC
notes: DVD-Ig; outer AB071 (VEGF), inner AB072 (DLL4); HC long, LC short linker; also called DVD504H; DVD504L
B5: DVD480 (bispecific antibody, human IgG1, kappa)
heavy: not shown
light: DIQMTQSPSSLSASVGDRVTITCRASQVIRRSLAWYQQKPGKAPKLLIYAASNLASGVPSRFSGSGSGTDFTLTISSLQPEDFATYYCQQSNTSPLTFGQGTKVEIKRTVAAPDIQMTQSPSSLSASVGDRVTITCRASQDVSTAVAWYQQKPGKAPKLLIYSASFLYSGVPSRFSGSGSGTDFTLTISSLQPEDFATTYYCQQSYTGTVTFGQGTKVEIKRTVAAPSVFIFPPSDEQLKSGTASVVCLLNNFYPREAKVQWKVDNALQSGNSQESVTEQDSKDSTYSLSSTLTLSKADYEKHKVYACEVTHQGLSSPVTKSFNRGEC
notes: DVD-Ig; outer AB071 (VEGF), inner AB015 (DLL4); HC long, LC short linker; also called DVD480H; DVD480L
B6: DVD486 (bispecific antibody, human IgG1, kappa)
heavy: not shown
light: DIQMTQSPSSLSASVGDRVTITCRASQVIRRSLAWYQQKPGKAPKLLIYAASNLASGVPSRFSGSGSGTDFTLTISSLQPEDFATYYCQQSNTSPLTFGQGTKVEIKRTVAAPSVFIFPPDIQMTQSPSSLSASVGDRVTITCRASQDVSTAVAWYQQKPGKAPKLLIYSASFLYSGVPSRFSGSGSGTDFTLTISSLQPEDFATTYYCQQSYTGTVTFGQGTKVEIKRTVAAPSVFIFPPSDEQLKSGTASVVCLLNNFYPREAKVQWKVDNALQSGNSQESVTEQDSKDSTYSLSSTLTLSKADYEKHKVYACEVTHQGLSSPVTKSFNRGEC
notes: DVD-Ig; outer AB071 (VEGF), inner AB015 (DLL4); HC short, LC long linker; also called DVD486H; DVD486L
B7: DVD464 (bispecific antibody, human IgG1, kappa)
heavy: not shown
light: DIQMTQSPSSLSASVGDRVTITCRASQVIRRSLAWYQQKPGKAPKLLIYAASNLASGVPSRFSGSGSGTDFTLTISSLQPEDFATYYCQQSNTSPLTFGQGTKVEIKRTVAAPSVFIFPPDIVMTQSPDSLAVSLGERATISCRASESVDNYGISFMKWFQQKPGQPPKLLIYAASNQGSGVPDRFSGSGSGTDFTLTISSLQAEDVAVYYCQQSKEVPWTFGGGTKVEIKRTVAAPSVFIFPPSDEQLKSGTASVVCLLNNFYPREAKVQWKVDNALQSGNSQESVTEQDSKDSTYSLSSTLTLSKADYEKHKVYACEVTHQGLSSPVTKSFNRGEC
notes: DVD-Ig; outer AB071 (VEGF), inner AB069 (DLL4); HC short, LC long linker; also called DVD464H; DVD464L
B8: DVD482 (bispecific antibody, human IgG1, kappa)
heavy: not shown
light: DIQMTQSPSSLSASVGDRVTITCSASQDISNYLNWYQQKPGKAPKVLIYFTSSLHSGVPSRFSGSGSGTDFTLTISSLQPEDFATYYCQQYSTVPWTFGQGTKVEIKRTVAAPSVFIFPPDIQMTQSPSSLSASVGDRVTITCRASQDVSTAVAWYQQKPGKAPKLLIYSASFLYSGVPSRFSGSGSGTDFTLTISSLQPEDFATTYYCQQSYTGTVTFGQGTKVEIKRTVAAPSVFIFPPSDEQLKSGTASVVCLLNNFYPREAKVQWKVDNALQSGNSQESVTEQDSKDSTYSLSSTLTLSKADYEKHKVYACEVTHQGLSSPVTKSFNRGEC
notes: DVD-Ig; HC short, LC long linker; also called DVD482H; DVD482L
B9: DVD530 (bispecific antibody, human IgG1, kappa, lambda, L234A L235A)
heavy: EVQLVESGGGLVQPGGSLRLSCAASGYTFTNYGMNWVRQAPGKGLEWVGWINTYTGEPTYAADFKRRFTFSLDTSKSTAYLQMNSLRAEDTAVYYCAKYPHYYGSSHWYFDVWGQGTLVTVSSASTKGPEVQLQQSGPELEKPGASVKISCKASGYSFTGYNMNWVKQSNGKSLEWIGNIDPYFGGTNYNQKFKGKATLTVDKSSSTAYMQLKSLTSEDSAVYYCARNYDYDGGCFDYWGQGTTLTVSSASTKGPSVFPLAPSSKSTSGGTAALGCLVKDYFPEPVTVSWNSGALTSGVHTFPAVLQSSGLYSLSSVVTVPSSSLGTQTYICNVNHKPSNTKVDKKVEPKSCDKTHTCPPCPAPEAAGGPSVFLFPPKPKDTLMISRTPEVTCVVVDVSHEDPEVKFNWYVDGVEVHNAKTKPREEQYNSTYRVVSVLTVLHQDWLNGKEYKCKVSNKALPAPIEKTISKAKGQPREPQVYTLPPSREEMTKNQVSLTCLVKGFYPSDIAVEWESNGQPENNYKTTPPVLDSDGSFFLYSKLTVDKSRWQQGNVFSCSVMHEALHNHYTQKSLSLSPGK
light: DIQMTQSPSSLSASVGDRVTITCSASQDISNYLNWYQQKPGKAPKVLIYFTSSLHSGVPSRFSGSGSGTDFTLTISSLQPEDFATYYCQQYSTVPWTFGQGTKVEIKRTVAAPSVFIFPPQAVVTQESALTTSPGETVTLTCRSSTGAVTTSNYANWVQEKPDHLFTGLIGGTNNRAPGVPARFSGSLIGDKAALTITGAQTEDEAIYFCALWYSNHWVFGGGTKLTVLGQPKAAPSVTLFPPSSEELQANKATLVCLISDFYPGAVTVAWKADSSPVKAGVETTTPSKQSNNKYAASSYLSLTPEQWKSHRSYSCQVTHEGSTVEKTVAPTECS
notes: DVD-Ig; HC short, LC long linker; also called DVD530H; DVD530L
B10: DVD506 (bispecific antibody, human IgG1, kappa)
heavy: not shown
light: DIQMTQSPSSLSASVGDRVTITCSASQDISNYLNWYQQKPGKAPKVLIYFTSSLHSGVPSRFSGSGSGTDFTLTISSLQPEDFATYYCQQYSTVPWTFGQGTKVEIKRTVAAPSVFIFPPDIQMTQSSSYLSVSLGGRVTITCKASDHINNWLAWYQQKPGNAPRLLISGATSLETGVPSRFSGSGSGKDYTLSITSLQTEDVATYYCQQYWSIPLTFGAGTKLELKRTVAAPSVFIFPPSDEQLKSGTASVVCLLNNFYPREAKVQWKVDNALQSGNSQESVTEQDSKDSTYSLSSTLTLSKADYEKHKVYACEVTHQGLSSPVTKSFNRGEC
notes: DVD-Ig; HC short, LC long linker; also called DVD506H; DVD506L
B11: DVD510 (bispecific antibody, human IgG1, kappa)
heavy: not shown
light: DIQMTQSPSSLSASVGDRVTITCRASQVIRRSLAWYQQKPGKAPKLLIYAASNLASGVPSRFSGSGSGTDFTLTISSLQPEDFATYYCQQSNTSPLTFGQGTKVEIKRTVAAPSVFIFPPDIQMTQSSSYLSVSLGGRVTITCKASDHINNWLAWYQQKPGNAPRLLISGATSLETGVPSRFSGSGSGKDYTLSITSLQTEDVATYYCQQYWSIPLTFGAGTKLELKRTVAAPSVFIFPPSDEQLKSGTASVVCLLNNFYPREAKVQWKVDNALQSGNSQESVTEQDSKDSTYSLSSTLTLSKADYEKHKVYACEVTHQGLSSPVTKSFNRGEC
notes: DVD-Ig; outer AB071 (VEGF), inner AB072 (DLL4); HC short, LC long linker; also called DVD510H; DVD510L
B12: DVD534 (bispecific antibody, human IgG1, kappa, lambda, L234A L235A)
heavy: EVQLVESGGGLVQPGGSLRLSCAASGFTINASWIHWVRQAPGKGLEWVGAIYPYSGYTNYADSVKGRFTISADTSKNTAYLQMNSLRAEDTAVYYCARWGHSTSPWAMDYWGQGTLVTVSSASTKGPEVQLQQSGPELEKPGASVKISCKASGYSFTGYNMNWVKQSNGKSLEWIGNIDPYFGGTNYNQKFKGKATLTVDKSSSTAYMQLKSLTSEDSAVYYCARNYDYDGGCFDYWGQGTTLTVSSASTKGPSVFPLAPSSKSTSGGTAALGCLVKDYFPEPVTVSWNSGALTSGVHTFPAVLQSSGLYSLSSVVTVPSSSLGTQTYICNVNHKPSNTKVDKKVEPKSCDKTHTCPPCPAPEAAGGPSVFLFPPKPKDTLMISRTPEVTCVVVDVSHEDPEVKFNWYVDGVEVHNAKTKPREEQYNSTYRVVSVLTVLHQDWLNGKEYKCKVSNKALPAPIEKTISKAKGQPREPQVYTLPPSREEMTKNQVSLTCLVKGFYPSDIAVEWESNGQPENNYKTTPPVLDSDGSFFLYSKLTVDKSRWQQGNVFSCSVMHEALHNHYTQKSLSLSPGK
light: DIQMTQSPSSLSASVGDRVTITCRASQVIRRSLAWYQQKPGKAPKLLIYAASNLASGVPSRFSGSGSGTDFTLTISSLQPEDFATYYCQQSNTSPLTFGQGTKVEIKRTVAAPSVFIFPPQAVVTQESALTTSPGETVTLTCRSSTGAVTTSNYANWVQEKPDHLFTGLIGGTNNRAPGVPARFSGSLIGDKAALTITGAQTEDEAIYFCALWYSNHWVFGGGTKLTVLGQPKAAPSVTLFPPSSEELQANKATLVCLISDFYPGAVTVAWKADSSPVKAGVETTTPSKQSNNKYAASSYLSLTPEQWKSHRSYSCQVTHEGSTVEKTVAPTECS
notes: DVD-Ig; outer AB071 (VEGF), inner AB073 (DLL4); HC short, LC long linker; also called DVD534H; DVD534L

Each binder was assayed against T1, DLL4 ECD/His tag (R&D 1506-D4-050) (UniProt Q9NR61 27-529) (assay: direct bind ELISA, DLL4 on plate; DLL4 VD C-term.; HC Long, LC Short).
T1 construct: extracellular domain; Bought antigen coated on the ELISA plate; not shown: His tag
Binder B1 has an EC50 of 570 pM. For B2, the EC50 was 1540 pM. B3 gave an EC50 of 810 pM. Work on B4 yielded an EC50 of 530 pM. For B5, the EC50 was 600 pM.

Each binder was assayed against T1, DLL4 ECD/His tag (R&D 1506-D4-050) (assay: direct bind ELISA, DLL4 on plate; DLL4 VD C-term.; HC Short, LC Long).
B6 showed an EC50 of 590 pM. B7 gave an EC50 of 800 pM. For B8, the EC50 was 360 pM. For B9, the EC50 was 220 pM. With B10 the EC50 was 320 pM. With B11 the EC50 was 420 pM. For B12, the EC50 was 470 pM.
